A short description of this data set: soluble on expression in E. coli; label from the status in PepcDB or PDB records.
Turning to “MLPSTSKSVEVNENSEEPIELEENVIVVTGDEIQAEIAVVDGEEVIFADDDEYIEYDPLSIANDRNAVYDIYQPHESENGTFMCKICMRTGKNTEYEDRSTFVAHRYKCHGSFNNNVMCPLGDCREVFASLYTLRRHLSQQHELPIEIHLQSFVNIGEFEKFRHLVELASGCRFMMHTKQPKYRRQVMHCSKSEHKLVLQTQKHRLPRERMLKEGSACPSVISYRVESSSGEVHTFMQLYHIGHAPDTESQNSNADNARPMDIVFPIKPACWANHPMQYVQIDVHEMPTSIYGNKIYDNILIVTCLKTRFLWAKPLFECTRTAIGRILNSIFNEYGVPEGFSTSFSPTYIRDTIKSLESVYAVEIREVWNEPLPYNCLERWVLELAQNELGTRNRWVEQLQFLVMEYNQKPIPDRMETPFERMFNRKAPNLYHNGDNQEIIHDKYISYHSELRNEEEGVENRLNTSFEPGRKVFLRKGITKPRRGNNTQYYFGYIGEVDPSNPYYPFKVHYTSSDSPWPSERNIYAWVSVFDLLPTIHEISEMSMTSKKVSIAGLLCSCMGIESSQKYDLTAMGDIARESSRCLLFRNCLCTNQMSRFCCKLVGREHCRFHSVYPENDESYAKMDAALSSFIAYNKDSSKEAEKDLQDSTPIEQILNEVGRRRLESEITVEDPEDLAPPILEPMEPTERHLDTEEEEEEPNQIPMASEHIDIEGVDEEEIMEHSVNAISEEILFEYADDKRDDGPSTPKRGRRRKSPSESAGKKKKLSNNDEFVESTVSRRSSARRTIRPKNLDDYVE”, the “soluble on expression in E. coli” value is given as “not soluble”.
For “MAHHHHHHMPRPEILASCHQTLENCLIESTRNSMDATNKAMLESVAAEMMSVSDGVMRLPLFLAMILPVQLGAATADACTFIPVTRDQSDIYEVFNVAGSSFGSYAAGDVLDMQSVGVYSQLRRRYVLVASSDGTSKTATFKMEDFEGQNVPIRKGRTNIYVNRIKSVVDNGSGSLLHSFTNAAGEQITVTCSLNYNIGQIALSFSKAPDKGTEIAIETEINIEAAPELIPLINHEMKKYTLFPSQFVIAAEHTVQAAYEAQREFGLDLGSLQFRTLKEYLSHEQDMLRLRIMIWRTLATDTFDIALPVNQSFDVWATIIRGKFQTVYRDIIERVKSSGAMGMFAGADAASFFKQLPKDFFQPAEDYIQTPYVHYIGTPFRTTHST” the value was “not soluble”.
For “MAHHHHHHMLKRSGTICSLQSVVRGAAKIAAAIVDASVGNVNVVDNSHNGEGGTPARAAGRSHTSSPPEVLPRSVVTQLHESKDDLRKNAVYMSVPSTRITRAAGFASLFVQLGWDHLVDRNGEGILSSQSHKRVVNTLRRMRGVVLKLGQMLSIQDPATVPQYVLQLFEQVRDSAYAMSREQLDQTLAKEYENINWRKDFFLEFDDEPIGAASIGQVHRATIKGEGDTQIEHVAVKVQYPGVATSIDSDIANLKMLISLHLLPPGMFVDRILQDLRQEFLLECRYKIEAAKQVRYAALIKQEPELQEVFVVPKVYESLSTENVLVTQFVTGIPVDRLANISGVQDLKNYVAERMLLLTLTELFRWRFMQTDPNYANFLFDAEKNKISLIDFGAAREYSKEFVKDYMDVVAAAARQDRDRIIEKSIKLGFLTGNEMKPMLDAHAASVELLGRPFRHHDKPFDFSAENLPSKIQEHVPTIIKLRLRPPPTPVYSLHRRISGIILLATKLKATVNSGEMFWNIYNSCRTNYE” the value was “not soluble”.
For “MSLASISLPVGGRLLPYELTGRPVPLKGRDAAAFPRVAFAAAHVVADPLADNDPWVTPAIDWERTLAFRHRLWDLGLGVAESMDTAQRGMGLGWPEARELIGRSLSEARGRSGALIACGAGTDHLVPGPNVTIDEILRAYESQIETIEAEGGRIILMASRALAAAAKGPEDYFRVYDRILSQVKEPVIIHWLGEMFDPALEGYWGNADHMAAMKTCLDVIEAHAAKVDGIKISLLSKKKEIVMRRQLPKGVRMYTGDDFNYAELISGDEEGYSDALLGIFDAIAPVASAALEALGGGRNGEFFELLDPTVPLSRHIFKAPTRFYKTGVVFLAYLNGLQDHFAMIGGQQSARSLVHLAELFRLADRAGVLQDPELAAGRMRRVLAVNGVAEGHHHHHH” the value was “soluble”; for “MPLDSPAKLEFPLHWAVYVDCKDELNELLKNKSTLEIDKIDPRGRTPLMLAVTLQHFDCARLLMDAGADASIPNKEMWSVSNEAVAQGNEQFIQEVIHHRDYQRANRGAHAMKRSLEKLAEVPDFFCEMNWDFSSWVPFLSQACPSDCHKIYKRGSSVRIDTTLVSFEGASWVRGNQSYIFRLSRNGYAEFIVLDHDERIAAVQELRDDDIFNEYRPLPSALDDRLRNTISTTYIDVENIGFERTSRGFLSWFSSGETNETVDGYDCKVLNASNVHLVTKRRFDHLSSEARARLAQEEASESKAVTSFKKMMSTNKTDENTTRDLYEEGLSPDSYLDPHYEFDTGCDIGKRREVVKKSNAFQATLWMADEYPLNLHDQIIPIVELMAVNSPHFARLHNFIRLQLPAGFPVKIEIPLFHIVSARIAFQNINSPGKHVTPIDNQNVDIEEEAFEIPDGYAIDDDGRYGITWEDDDDRNNRNNRNQVANGNTSRRGLGNNYSDDMLLQYAIQQSLLESTARQPSRVQEEEYVDILEQIESVPVNPETDFYRAIRDSQVEEDRRRREDEQYEEDLRKVLELSKAEQ”, “not soluble”.
For “MPKIVILPHQDLCPDGAVLEANSGETILDAALRNGIEIEHACEKSCACTTCHCIVREGFDSLPESSEQEDDMLDKAWGLEPESRLSCQARVTDEDLVVEIPRYTINHAREH”, the “soluble on expression in E. coli” value is “soluble”.
For “MGSDKIHHHHHHMRETIREIQKVAYWLAIKGLSEANAGNISVRLDERPEGYEVKSVNEYGFDYDGPEMYLLITATGSRMREVYEDDSKICLLHVLPGKHYEILHGNGKPTSEFPTHLMIHAKFKEMNPEKKAIVHTHPLNLLTLMNLEEFQELLPKMMKIHPEVLIFFPQGISVVEFEKPGSVELGLKTVEKSEGKDAVLWDKHGVVAFGKDVAEAYDRVEILEKAAEILLRVLSLGRNPTGVPEGWL” the value was “not soluble”; for “MAHHHHHHMESKICDPIGLDKNKFRKVEEENEENSKIVENGQMTYNDDLEMFTTIQLNQEIDIRKNPFPLHMINQKNDIPLCAQEFSKLTDPLYIKKICLEKVHDWSRCNEDDVCVNQILSGLTNQLFEVSIKEDTAIEYRITRRHVLFRIYGKDVDALYNPLSEFEVYKTMSKYRIAPLLLNTFDGGRIEEWLYGDPLSIDDLKNKSILVGIANVLGKFHTLSRKRHLPEHWDKTPCVFKMMDRWRLAVSNYKNLDKVTLDINKYIQESHKFLKFIKIYTQIENIANDIVFCHNDLQENNIMNTNKCLRLIDFEYSGYNFLSADIANFFIETTIDYSYNAYPFFIINKKNYISYESRILFVTTYLSKYLDDSTAASDQDIIDQFLEAIEVQALGLHLIWAFWSIIRGYQTKSYNEFDFFLYAKERLKMYDEQKQYLMSKNIIKDYDD”, “soluble”; for “MHMLKARNCGWIRLLPLFMLSLPVQAELRCVANAVDIESFFSAATAEDKQQVEQAINSSVNLVPFGLSASNWKVHRGDLVVEGNIESNQKLIVLGNLTVKGNISTFSLSNPWVILGNVTATNIVADSPLLITGSINASGLVFIDSYYDNPSTIKGSINARGIFINDIIAPVVASSTNSEFMVRASDKHDTENVKKALMIINPDAYYWGLINDEDALKEIFKRSNIRMAGNVCNQMKKEALFRPKPSPELVQELQMLDEGKVAAFEGRDIATFDLAVMRTLPRLKGISANLRKQLINSNDEQTIESMARYMPDNEILELTDQQLGYQPVVLGLLDREPLSVEIMTRMSRLPDGVGPLNLALRENLPLDIVMTLAKRDWDMIIQELYKDAWLLPESIIDGYIRSDDSSIRQVGAGGQLTYNQAMQLANDSSNNVVTSLAFKLAEMKHHGQLLRMTPQESDKVAGYLYQKFENDDDLIRVLFLALPDNLQFNFVKRMEKKSPAYFCCRDMQVIHSDAALQRLLTRFNDPEGWSNLAKNQYLSTSMKQKIWQRALSHRKNNPKADSDAYETSADMILSELISHGEVDDQMLLNATALIRSDDWDFLESALISWDNLPAVVLKELQQNTPRNDIWAKFFLRQENSSRAQVDEALRVYYALDPDALAQLDVLAKQPDRIWWSTLAKSNLTFFKFGALNNRHTPPAVLAAEIDPEWWIVAMNNPRFPVDVLKARLKRDPLLALELVNPELDLVRQLALNGKTRAIREQAMRKLDELY”, “not soluble”.
Regarding “MGHHHHHHSHMVTSITATANQMPANPPKTVFEFSTEINRTIEKDVMQAVVYSRKTGKQLPDLKKSVSLHLNKVIDNAKKQSDIELEANGVRNFVNYDNNNKPDGWVAEGRVYLKSKNFEALAKVLEQLDSEVAISDIYFSVSPEKAKTLENEMILDVLKQFKHKAEVVQAGLNAKNYVLTDVKLDTPNGNLDQFEVRSFAMMARSVRPASAKEELSLEPGKATLSARASGKVQFE”, the “soluble on expression in E. coli” value was “soluble”.
On to “MAHHHHHHMTLENKALLCLIKKYEEKNKFLNVVEYIHYVCTNLYSYEENLNYNIMYDEFLKDLKKYLKENILDYKHILENILLKTDINYVNEQNIVNDILSKKKIYDISFEEVKNTTMKSEYSMENIKTSVKTENKDISLNKEECNKDDHVQEDNIDKYNGLEGKNREKNICRNWKDEKSQHEFYQLQSFEKNENREWFRVDPNLNWKEKQQLIYNEIEKLKNEIKKITVHSESTKIIISSMICQSKIFLYELEDNIKDYKILKEKIMNDKYLLKKGDYINEVYNGIIQNQRIKIDNVKKTNKTLLNLYNKKFSNINYIISLNENINNVDFLYLNVLIHNRKETPQPYEQLQNKIPEYTNKEKEIFSNIEKNNDSLNLLDNLIVDITNKIDTNMDITNK”, for which the “soluble on expression in E. coli” value is reported as “not soluble”.
With “MPSIRLADLAQQLDAELHGDGDIVITGVASMQSAQTGHITFMVNPKYREHLGLCQASAVVMTQDDLPFAKSAALVVKNPYLTYARMAQILDTTPQPAQNIAPSAVIDATAKLGNNVSIGANAVIESGVELGDNVIIGAGCFVGKNSKIGAGSRLWANVTIYHEIQIGQNCLIQSGTVVGADGFGYANDRGNWVKIPQIGRVIIGDRVEIGACTTIDRGALDDTVIGNGVIIDNQCQIAHNVVIGDNTAVAGGVIMAGSLKIGRYCMIGGASVINGHMEICDKVTVTGMGMVMRPITEPGVYSSGIPLQPNKVWRKTAALVMNIDDMSKRLKSLERKVNQQD” the entry was “not soluble”; with “MRAPFISSLVKTLVHTDYDTSTGEVRSRRATGFVVGLTGEWGLGKSSVLNLLEHDLKQMEHVAVATLNPWLFKGRDEVVEAYFNALREALGFSSSEKARKLLVHLARYKASIEFVGATTAVVIDFVVGTGSATAIWKKWVLKVVRFLSKSRGLSANEERKNLEAKLAEAKIAIVMLIDELDRVEDEEVRVVAQLVKAVGDIKGISYLVAYDPSRVAQALGKGSTPEEKQKAGESYLEKIIQFPIPLRPLFMDEARDLLLQAMRNNDVTMPAESQSYQTEILNQLLRVIRTPREIKRLIGAFAVLEEIVRGLEHHHHHH”, “soluble”; with “MIINITILEDNESDFITLSDSIKKWAANTGILINIIWLNSYKKFIKSLPTLKCDLFFSDIELNCNNSFTGIDACKQLRESGYTGIIIFLTAFKEYVFDGYDVQAFNYLLKPINYGTINNCLDKFIHLFSREFYYLEHHHHHH”, “soluble”.
With “MGSDKIHHHHHHLKKQAVVIGAGLAGMSAAIRLAGDGYEVTMLEQNGNVGGKLNQRSGQGFTFDTGPSILTMPWVLEQLFTSVHRRLDDYLEIERIEPQWRTFFEDGTQLDVKGDLPGMLEEFKKVSDQADFVELFSYSKKMYDLCLDSFYKYSLEDLKDLKKYHTMSELLKMDPLNTVASGTKKHLNNKYLEQLFNYMVMYVGSNPYEAPAVFNQMIYVQMGLGIYYVKGGMYNIARAMKTVLDELRVTIHVNTPVARVVTEGKRAIGVETTDGTFYPADVVVSNLEVIPTYQHLISEKKGPKQAKKLNQSFVPSVSGLVLLLGVNREYKDLKHHNFFFSDDPEREFAQMFKDGVPPEDPTIYVGVSSKSDASQAPEGKDNLFVLTHVPPLTKQDGKTDWDAYREVVLDKLERMGLTDLRESIEFEYRFTPEDLKSLYGPNGGSIYGVAADRKKNGGFKIPSKSDLYEGLYFVGGSTHPGGGVPMVTLSGQLTADLIQKHEKVKA” the entry was “not soluble”.

(Values after the DeepSol protein solubility set.)
